Assay results taken from article PMC3355120, “LGR6 Is a High Affinity Receptor of R-Spondins and Potentially Functions as a Tumor Suppressor” (PLoS ONE, 2012).
Each block holds one binder with its values, some of them ahead of it.

Tests used:
[1] = molecular target: T1, human LGR6 (leucine-rich repeat containing, G protein-coupled receptor 6) with a Flag-tag at the N-terminus, … (human, UniProt Q9HBX8-3 25-967); assay: whole-cell-based competition binding assay; HEK293 cells stably expressing Flag-LGR6 incubated with mRSPO1-Fc plus serial dilutions of purified recombinant RSPO1–4; maximum specific binding is the difference with and without mRSPO1-Fc; details: one partner purified
T1 construct: human LGR6, predicted mature form AA25-967 of NP_001017403; The CD8 signal peptide replaces LGR6's own; also called Flag-LGR6; LGR6 WT; source: HEK293T cells, transiently transfected (reporter assays); not shown: Flag, N-terminal, kept
T1 sequence (looked up): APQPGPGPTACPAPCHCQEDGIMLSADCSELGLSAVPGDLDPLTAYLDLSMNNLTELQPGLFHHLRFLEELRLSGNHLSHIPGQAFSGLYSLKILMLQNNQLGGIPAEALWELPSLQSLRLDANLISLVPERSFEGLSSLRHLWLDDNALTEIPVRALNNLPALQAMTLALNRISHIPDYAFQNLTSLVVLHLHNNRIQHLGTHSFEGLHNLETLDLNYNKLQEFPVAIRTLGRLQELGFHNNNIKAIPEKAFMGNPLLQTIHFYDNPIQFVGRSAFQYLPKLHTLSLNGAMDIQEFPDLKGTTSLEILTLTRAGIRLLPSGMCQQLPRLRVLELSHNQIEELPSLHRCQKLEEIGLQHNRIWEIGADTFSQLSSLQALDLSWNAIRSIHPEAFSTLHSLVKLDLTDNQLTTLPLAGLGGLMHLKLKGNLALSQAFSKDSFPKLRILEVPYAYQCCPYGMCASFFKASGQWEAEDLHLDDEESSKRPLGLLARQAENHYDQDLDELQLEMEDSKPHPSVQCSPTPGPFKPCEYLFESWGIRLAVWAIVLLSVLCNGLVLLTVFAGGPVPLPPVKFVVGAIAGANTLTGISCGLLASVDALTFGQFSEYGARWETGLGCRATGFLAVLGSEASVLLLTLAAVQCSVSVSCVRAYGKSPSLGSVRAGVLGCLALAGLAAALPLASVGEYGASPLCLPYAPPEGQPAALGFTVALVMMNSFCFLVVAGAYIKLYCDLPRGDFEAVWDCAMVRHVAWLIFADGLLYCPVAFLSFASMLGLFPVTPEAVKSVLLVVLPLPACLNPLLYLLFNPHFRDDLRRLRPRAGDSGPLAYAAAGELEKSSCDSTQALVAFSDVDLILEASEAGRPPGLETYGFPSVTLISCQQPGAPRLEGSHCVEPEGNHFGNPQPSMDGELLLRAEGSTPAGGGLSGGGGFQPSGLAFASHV

[2] = molecular target: T1, human LGR6 (leucine-rich repeat …); assay: cell-based or functional assay

IC50 [1]: 7 nM
B1: purified recombinant R-spondin 4 (ligand, UniProt Q2I0M5 20-234, looked up)
chain: LNRRKKQVGTGLGGNCTGCIICSEENGCSTCQQRLFLFIRREGIRQYGKCLHDCPPGYFGIRGQEVNRCKKCGATCESCFSQDFCIRCKRQFYLYKGKCLPTCPPGTLAHQNTRECQGECELGPWGGWSPCTHNGKTCGSAWGLESRVREAGRAGHEEAATCQVLSESRKCPIQRPCPGERSPGQKKGRKDRRPRKDRKLDRRLDVRPRQPGLQP
notes: R-spondin 4 (RSPO4); also called RSPO4; source: purified recombinant

Super TOPflash β-catenin reporter in HEK293T cells transfected with LGR6 or vector, serial dilutions of RSPO1 with Wnt3a CM: gain in potency of RSPO1 [2]: ~30 fold | IC50 [1]: 3.3 nM
B2: purified recombinant R-spondin 1 (ligand, UniProt Q2MKA7 21-263, looked up)
chain: SRGIKGKRQRRISAEGSQACAKGCELCSEVNGCLKCSPKLFILLERNDIRQVGVCLPSCPPGYFDARNPDMNKCIKCKIEHCEACFSHNFCTKCKEGLYLHKGRCYPACPEGSSAANGTMECSSPAQCEMSEWSPWGPCSKKQQLCGFRRGSEERTRRVLHAPVGDHAACSDTKETRRCTVRRVPCPEGQKRRKGGQGRRENANRNLARKESKEAGAGSRRRKGQQQQQQQGTVGPLTSAGPA
notes: R-spondin 1 (RSPO1); also called RSPO1; source: purified recombinant

IC50 [1]: 1.7 nM
B3: purified recombinant R-spondin 3 (ligand, UniProt Q9BXY4 22-272, looked up)
chain: QNASRGRRQRRMHPNVSQGCQGGCATCSDYNGCLSCKPRLFFALERIGMKQIGVCLSSCPSGYYGTRYPDINKCTKCKADCDTCFNKNFCTKCKSGFYLHLGKCLDNCPEGLEANNHTMECVSIVHCEVSEWNPWSPCTKKGKTCGFKRGTETRVREIIQHPSAKGNLCPPTNETRKCTVQRKKCQKGERGKKGRERKRKKPNKGESKEAIPDSKSLESSKEIPEQRENKQQQKKRKVQDKQKSVSVSTVH
notes: R-spondin 3 (RSPO3); also called RSPO3; source: purified recombinant

IC50 [1]: 0.5 nM
B4: purified recombinant R-spondin 2 (ligand, UniProt Q6UXX9 22-243, looked up)
chain: QGNRWRRSKRASYVSNPICKGCLSCSKDNGCSRCQQKLFFFLRREGMRQYGECLHSCPSGYYGHRAPDMNRCARCRIENCDSCFSKDFCTKCKVGFYLHRGRCFDECPDGFAPLEETMECVEGCEVGHWSEWGTCSRNNRTCGFKWGLETRTRQIVKKPVKDTILCPTIAESRRCKMTMRHCPGGKRTPKAKEKRNKKKKRKLIERAQEQHSVFLATDRANQ
notes: R-spondin 2 (RSPO2); also called RSPO2; source: purified recombinant
